Drawing on a protein production outcome set (Wang et al. 2014), this text covers protein production for 17 sequences.

This data set can be described thus: label from the status in PepcDB records.

Turning to “MTTEPAQALSPLGVLPPAGPTCVHLPLNVTPQELARYAVGLANARGGTVMVGVDVVGQEHAERDAGELHPLMITHAIFELSGGRLTVNVQHHRVPGGARVLTVFVPQAPYVLAAPDGAVMAWDGAHLVPVLPGEGEPVADRDYTAVVPPDASLADLDPAEVARLRLLGRRIDAANLPDLDFLQELGLLVPSGGALRPTLAAILLAGTDAALRAHLPQAEVCYFHHQANDVEFQFREDLRRPIPSLLLRLSELIQARNRFTPVQVGLFRVEVWDHDESVYREALLNALTHRDYTLRDVVHVHHYPDRLEIMNPGGFPGGITPGNILRHQPKRRNPLLAGVLARLGLVEQAGVGVDKMFSLMLRHGKEPPEYVNYPDAVTLTLHGSAFDSDFVRFVARKQEELPQLSLDMLIVLSLLSREGEAPRAQLARALQLPEDRTPRLLRQMEDLALITRAGIGRGIAYHLAPDVAAALGQEKQRGLSALPGLPEPAERPTLLAPPAAVAPAPAPAAPRRVSEPAPTSHAGPSPSETRAIALALARERGRVRNADLREVCGLTNQQAWRALRSLVNAGLLRRLGSGTRDAYYELGEGAGRREEG”, the protein production result is “failed”.

With “MTTFTGHLTDAQAQRLVDGTLLEAEADEVLAHAGDCAECQALTESYRVLGDALGEALGALEVPELPRDFTAGVLSRIDARERAVRRERRFAAAILAAVLVAIGVTVVVAGAGTWAPAASRLAGGLGSAGEVLRLGAGLAGTLLSALRFPLALACTALAVPLLFALSRLIPSARAELA”, the protein production entry is recorded as “failed”.

“MTTHHETYTAPPFGPALMLNAFAPSRGWNPKDGFPDFSFIWRGYQISPAALATLQRAAGRDDAATADRLILLAPHVTGFRLTMALLMCRDWPLPIWRALQLRNRLIRSGDIKLDAASDLIVRAIGWRVHDKGIELDVLAQLMQGGDCPWQSITTFYYRGRFDGPASHGADDGAPMASPPIDPSLPPMTQWTVDGGERLRWAALTGDYNPLHLVDIYARATGFAAASAHPQRIAAQCLGHLAPTPEHPTQLDLWLKGPVYFGRSASLREASNDDGTTFGLWIDGDDRPAMVGVMR”: the protein production result is reported as “failed”.

Take “MTTHQVKKSEAKRQHILDSGFHLVLRKGFVGVGLQEILKTSGVPKGSFYHYFESKEAFGCELLKHYISDYQIRLNQLWTTETSARDKLMNYLQCWVKDPATEQSWAESCLIVKMAAEVADLSEDMRLIMNDGVKRLIARMADLIRIGQQEGSIQTSVVPDVLAQVIYQMYLGAALLSKLYKHKAPLFQALESTKMMLDGCNHVQQDKNQ”: the protein production result was “not failed”.

On to “MTTIPSTAEAKLEMLTTINRAIAGSRPEALPPYPVPAPLSRAEILHQFEDRILDYGAAYTHVSAAELPGAIAKALGNARRVIVPAGIPAPWLTVGMDVLRDEPPLSHAELDRADAVLTGCAVAISETGTIILDHRADQGRRALSLIPDFHICVVREDQIVQTVREGVEAVAASVREGRPLTWLSGGSATSDIELVRVEGVHGPRRLQVIVVG”, for which the protein production result was “not failed”.

For “MTTKDISRPVCILGLGLIGGSLLRDLHAANHSVFGYNRSRSGAKSAVDEGFDVSADLEATLQRAAAEDALIVLAVPMTAIDSLLDAVHTHAPNNGFTDVVSVKTAVYDAVKARNMQHRYVGSHPMAGTANSGWSASMDGLFKRAVWVVTFDQLFDGTDINSTWISIWKDVVQMALAVGAEVVPSRVGPHDAAAARVSHLTHILAETLAIVGDNGGALSLSLAAGSYRDSTRVAGTDPGLVRAMCESNAGPLVKALDEALAILHEAREGLTAEQPNIEQLADNGYRSRIRYEARSGQRRAKESVSPTITSSRPVLRLHPGTPNWEKQLIHAETLGARIEVF”, the protein production entry is “not failed”.

“MTTKFVVGYDGSAASRRALDFAMERAKAGGASIIVAHVLEWSPYSFLTPTEIEERHKRRAEEMARAETAILAPLKAELAGSGVEIETAIRYGQVADTLCDIATKSGAAQIFIARQGESGLAARVFGSVAGTLAQYAPVPCTIVP”: the protein production entry is given as “failed”.

In the case of “MTTKNMNTPPGSTQENEIDLLRLVGELWDHRKFIISVTALFTLIAVAYSLLSTPIYQADTLVQVEQKQGNAILSGLSDMIPNSSPESAPEIQLLQSRMILGKTIAELNLRDIVEQKYFPIVGRGWARLTKEKPGELAISWMHIPQLNGQDQQLTLTVGENGHYTLEGEEFTVNGMVGQRLEKDGVALTIADIKAKPGTQFVLSQRTELEAINALQETFTVSERSKESGMLELTMTGDDPQLITRILNSIANNYLQQNIARQAAQDSQSLEFLQRQLPEVRSELDQAEEKLNVYRQQRDSVDLNLEAKAVLEQIVNVDNQLNELTFREAEISQLYKKDHPTYRALLEKRQTLEQERKRLNKRVSAMPSTQQEVLRLSRDVEAGRAVYLQLLNRQQELSISKSSAIGNVRIIDPAVTQPQPVKPKKALNVVLGFILGLFISVGAVLARAMLRRGVEAPEQLEEHGISVYATIPMSEWLDKRTRLRKKNLFSNQQRHRTKNIPFLAVDNPADSAVEAVRALRTSLHFAMMETENNILMITGATPDSGKTFVSSTLAAVIAQSDQKVLFIDADLRRGYSHNLFTVSNEHGLSEYLAGKDELNKVIQHFGKGGFDVITRGQVPPNPSELLMRDRMRQLLEWANDHYDLVIVDTPPMLAVSDAAVVGRSVGTSLLVARFGLNTAKEVSLSMQRLEQAGVNIKGAILNGVIKRASTAYSYGYNYYGYSYSEKE”, the protein production result is given as “failed”.

Regarding “MTTKRVNTATNKIMTLNTFLDTCFLLFISILFYLSIPIYPNKVVVVPQGSLKKVFFSLKEQGVDMNALDLLFLRLMGMPKKGYIDMGDGALRKGDFLVRLIKAKAAQKSATLIPGESRYFFTQILSETYQLETSDLNQAYESIAPRLNGEVIEDGVIWPDTYHLPLGEDAFKIMQTLIGQSMKKHEALSKQWLGYYHKEEWFEKIILASIVQKEAANVEEMPLIASVIFNRLKKGMPLQMDGALNYQEFSHAKVTKERIKTDNTPYNTYKFKGLPKNPVGSVSLEAIRAVIFPKKTDFLYFVKMPDKKHAFSATYKEHLKNINLSNNHF”, the protein production result was “failed”.

With “MTTLQLFESVNAFVWGPPLLALLVGTGIYLTIRLGLLQVVRLPLALRYVFGRDDEHHEEGDVSSFAALCTALAATIGTGNIVGVATAVAAGGPGALFWMWVAAFFGMATKYAEGLLAVKYRVTDANGQMSGGPMYYLERGLGSRMLARAFALCGILVAFFGIGTFAQVNAIKDAASLSLGIPPLATAVVLTTTVALVTLGGLRSIARVAEKVVPFMAVFYIIASCAVLVMHLDRIPDAVMVILHSAFNPQAALGGAAGMTVLTAMRAGVARGVFSNESGLGSAPIAAAAARTKSCVRQGLISMTGTFFDTIVICTMTGLVLVVTGVWNDPQLAGAAMTNAAFAAGLESSLGQYAATLGLILFAFTTILGWNYYGERCTEYLFGVRGILPYRLVFIGLVAAGAFVHLELIWVLADIVNGLMAIPNLIGLLGLSGVIIAETRAFFEADAPSVDAPCGSDADNASGACPRA”, the protein production result is “failed”.

As to “MTTLVLVSHPHLADSTSQQFLKASINSDEVLWEHIESQATIDIEKEQAQLRQADRIILQFPLYWYAAPAGLKQWEDTVLTRTFVYGDHRYPLAGKELGIVVTTGMPAKAFQRGGAEQITLDAALAPLAAVANRAKMKWLPTFAIHQFAYLDEPAKLQLVVDYQRYLTQTQPDNLQNKQAWFAQHLPAMIERLPLEQQQAGQLILTAFEQQQTDLEALTDTLGLIKEQEDD”, the protein production result is on record as “failed”.

In the case of “MTTNIAANSGGIVFHFLGTGGAQQVPAFGCECEVCQQAQRNESKRRRACCAAITTKDRIILIDAGLPELSPYLLPYPQRHILLTHYHMDHVQGLFPLRWGYGEPIPVFGPPDEAGCDDLFKHPGILHFQKPLMAFQPFELDGIRITPVPLIHSKLTYGYLIQTPTHTLAYLTDTIGLPPETTQFLASHTLDYAIVDCSHPPQTMLPRNHNDITRALEIFTQLNPKQLYLTHISHELDRWLQTQTLLPENVHAAYDGLVLGLLEHHHHHH”, the protein production result is “failed”.

Turning to “MTTNRETVLSMAKRKRSVVAINASGWRSNGEVMGLQIKDGVLYKDYDAAGYTGAEACVFFDDGTMKVYGNREVDADILISKGARNSFAFGIWLVKDSKPRTAQMTTWADLNVKHPRQAIGQRSDGTLVIITVDGRSLRSSGITAYDMPSLFLSEGCINAFLLDGGGSSQTAVEGKYINNISDGIERAVVDTLTISYPDDLEHHHHHH”, the protein production result was “failed”.

Turning to “MTTPAPVPRITVLLPVYNGEQYLREALDSLLTQTYRNFSLLAVDDGSTDSSLEILRSIKDPRLSVKVNPRNRGLINTLNESLDLIQSEYVARMDADDIATPYRLEEQLAFMDAHPDVGLCGGYYERFTDTESIVVRPPTTHEDISYALIFDNVMAHNTVMFRRSVLERYRLRYDPAFAYAEDYELWVRFARYSRLANLPRVLVRYRFHPANTSSRFRHEQQIAAAKIRHIHRTNLGLEPRPGDAALHRQLFDMRFEGDLPELTAAGIWLSKLYRVGVRRCRQNPVSTFLEFNKLWYSACGRLADHGLKVFAQFLRQPFGFLGNPAYTLKLAYRCWRRIRIALEHHHHHH”, the protein production result is “failed”.

For the sequence “MTTPPLRIGLIGAGYIAAWHADALRAVPGVKLTAVCDPNMDLAEGLAAAHGARAFGDLDDLIGAGLCDGVHILTPPDLHHPLALHCLRAGLHVLVEKPVALNAAQTQEIEDAARAANRRFHAGHNFLGLPSYTRLKREIRRGALGRVSGAEIRWCYPFGPLRAGPFGIWPLRDTRNLMLEFGPHLMSLVIDLFGLPEIEHVALSKPVALPGAGTRPQGWRILARAGEVELVLILSLVETADDRSVTIRGSSARARLDLAADTLVIDAENTADLVANPLLRQLSLARQHLVQGSVNAARQLTSFNRKSPYALSFRGLANGIWEPLAQNAPADPRWSGSSAVAVMTALDAVLERVDWPAPVPASPSRKPAPSAMVIGGTGFIGRALTRELVARGSDVRVISRGRQGSFADLPDQVETVSLSLRDTEGLARAMAGIDTVYNLARSTDSSWEDCLQNDVAVAEGIGKAALAAGVRRLVYTGTIASFDMSDPAATITDATPLPDEMDERNLYARSKAECERRLMALHRQSALPLVIARPGIVLGAGGPLQHWGIGRWHGAGAVRLWGNGRNPLPFVLIGDCVDGLIRCAEAEGIEGRAFNLVGPPILSARDYFDAIHDRLGARIRVSGGNLSLMYAADWVKFQLKTRVLGRSGLTRPSRADWLSRAHQSRFDISGARSALGWHPVSDADAFLTNAVDEAGLLGF”, the protein production entry is “failed”.

For “MTTPRPEYPRPHFDRSHSWLTLNGTWDFRADPAEAYSADASDGYDRAITVPFAWETPASGIAEHWLRTAWYRRTFTVPADWAGQRVVLHFGAVHHAATVWVNGTEVAHHEGGYTPFAADVTDALGDGEHQLTVRVHAPADKRDIAHGKQRSMPRDDYDGVCFTPSSGIWQSVWLEARPATHLAALRLRPNDDLTGITVEAVVHGPAADRAELRLRVRDEDTAVTATLDPDGRLATELPLSAPRLWSPEDPHLYHVDAELTSADGTDRVAAYTGLRTVTVDGESLYLNGRRLFVRGVLDQGYWPETGITAPDDAALRRDIELAAEAGYNLVRKHLKLEDPRFAHHADTLGMLLWAEPASPGRFSPASTAAFAEQIEPMVERDGNSPAIVIWGLYNEEWGLDWDIPGDPAKQRATADAYDRLKALDPTRPVVDNSGWTHVKTDLLDWHYYDESAASWATTVADLLSGERDDFPVKLGPDFVVRKKLAVPGQPLRGLPNLNSEYGGGFTGLDRAWHLRWQTQELRRHDRLAGYVYTELYDIEHESAGLLDFGRGAKDLAGVDPAHANAPTTLVLDVTPVAPGRDLLTTGPDFTVDVHVSHHGDDPVAGTVHTTWTPVYARTPDAPGDAVPGCRAEAKPYVLGAAVTVPAALPDGWTSGRLHLALVVDGTVAARTALDVDTRTDPYIGDDPQARPTA”, the protein production result was “failed”.

With “MTTPRRALIVIDVQNEYVTGDLPIEYPDVQSSLANIARAMDAARAAGVPVVIVQNFAPAGSPLFARGSNGAELHPVVSERARDHYVEKSLPSAFTGTDLAGWLAARQIDTLTVTGYMTHNCDASTINHAVHSGLAVEFLHDATGSVPYENSAGFASAEEIHRVFSVVLQSRFAAVASTDEWIAAVQGGTPLARGNIYASNQKARARRATA”, the protein production result was “not failed”.
